In the DeepSol protein solubility set:

Assay: soluble on expression in E. coli; label from the status in PepcDB or PDB records

Sequence	soluble on expression in E. coli
MAHHHHHHMKKHKVPCKKFYRQRAHCNPLSDSYIRYPINCSYVDWRVHYPHLAAHGSDAQAEPINSVEATKHITNTEVERPPDEDPPTLQLNTNKYPIDYNQGPPKCAPHAEVTILDIGCGYGGLLFELSKTFPNKLILGMEIRDKITNYVGEKIHSYRKNYPPQYKNISVVRTNAMKFLPNYIKKNQIEKLFFCFPDPHFKKQNWRRRTITIESLSLYYYLLKRDGLIYFITDVYTLFLWVRFCFSKYPGFRLLSPEECQGDICVRLIHHSSEESKRVSKNKQAMYFCVARKE	not soluble
MAHHHHHHMKKLGLVLDAAAVEKSQRDLQSYQIKNNNSLQLRAFLLNESGMFTKDGRKLPGSVTKEVIDDTSKRIIGRGASGAVYFAKLKDGGPVALKHIPITSKPHRDEVDRELSFFSSQSNSPFVMKNLGAFWDSEEAAIVIPMEWMAYTLKDLSCFWEGIEETMLRDIFFQVVSGLVYLHDTKRVIHRDLKPSNLLIRDDGYVKIGDFGVSKLVHTLDVSSTYVGTMYFMAPERLEQGAYGFNSDVWSLGLTVLSTITGKNPWAPPEEMNIFQLLGRIAGDTTPTLPEKPAYSEEARDFVKKCLVRDPQERPSTAELLKHPFFKGCTEASAVANVKQGVDYMTRLINSDAKKNGLLKRSPEDVTKEVNAKLDRLGDL	soluble
MAHHHHHHMKPSSISGEAPPLAVVGGNCSVFGFDRFGAERYWTVTGDQVTAMALMPWTSVSDSGSAPLSLLVASDDFEVRVYDGEEAIATVHEVDRVQKLVPLWQPSRNLDTETAAADSAGRYAYLLENGTVGMYERGERVWRVRGKSVPVSAAFCDVDGDGVAELVIGWSNGRVEVRTDRGGGLEKGGSVLFRDTYSSAVAAVLSEDYRQDGVPLPVICTVDGTVRGLTLLETRKDEAAEVRQLQVLEALVQEKQQLAAQLTSLEEQLARRAAGAQDTTMPESGVEVRCCCSANLATKHVEVHVEVTGPAAKRGDIVVHSCLLQCEIWATAAEQDTIAFANAEPSTTLVCSFAHADDLPLNVSASVAVGPAFGDSYRIHEVTVRVPRFVMYQLPYTIPPEQQRQRQGKTVTYQQPDGCVLLQWRELLRLDVIERWLRHSFCVPEDVALLDANAPTDPVLHLELIHVRDGSSFGIEVRNAAASGAAFNTITLWSDHLAPCGAVIDAFVEDLKGGWADGRADPVAVRCEMPLELERLRAIFARVDEFNEVRMKLTTDMADAATVVKTLLGRAEDARLLGDMASMKKSYAVLYDVDQELLCENAKRINNYEELKLALKEVNTCIQQAGMVRIGPARAQLIASCRNALKENQVNSLLEIIRTGSE	not soluble
MAHHHHHHMKSMRAVTMRAFGDVDVMHISEVTGVSLSRPSDVIIRVMAAGVNRADVSQRQGHYPPPKGSSEILGMEVSGVVEKVGENVKRFKEGDRVMALLTGGGYAEMAVAHEGSVMKIPEGYSFVEAAAIPEAFLTAWQALKLHGNLQKGQHMLFHAGASGVGTAALQLAEKYFRATAIATCSSGKVEFCKRFAKFVVDRSPDASGKCFSSKVRDAVKGETVNLIVDPVVGGTYLQEDGEVLAQDGKVVLLAFMGGAKVSLDVMPFFRKRASVIFSKLRDQTDEYKEALVRSFEEEVIPYMTRREIVPVVQCTYALEEVAAAHKLMENNKSNGKVILTVGKAE	soluble
MAHHHHHHMLCGSRATFARTAVAFFNMKHFQTKKKYNLTPQNIYETFSTVLLPRDRLLRQSVSGGGGSRVLVLDAQQRVKGVYLPVFCMPHPSTVTNGSNSLGVAVADYTRSIEATLAMHKAGGGGGTAPTLPTVLVVLSHPQGLAYGTFRADGTPGVPMKNLALAPILANARTQQASTNIASTPLRTSGLGTVMPLLNVSHRHAEVVRDIYTELNECEHVAELAACSTFVWVQRDNMSSMTFEKAQSSERYWERAKNDGDSAAAPPPGAISFLDRRWVLLMDVALHPDTGLGLYARDPATGDRIVNATGVQSALCRGLLLLDHVPRTVANTARAANRETGVSG	soluble
MAHHHHHHMLHNDKKNPREALDEEKPRKSNPGEVGTHRKARDTKGNKNKSGEGHITKVEGKADCEPHDVKRKGEKDKVLIQCKELQRKELEALKLIYVKDKELAIQNENDEKRDTIIHMHLNDENISDNVINLTFELPKDYPLKSFLLININVKNFTPDMNNYVNQEVYKDMPNYIAHENSILSIIYRINELVENIQNRKETLVDQSYSSSEEREENAEEEAFDSSKDQLIKDHVTFLYCSGMTYSQHRRVLARRLCYSHHILSLVKRTCIIKWAKELKIGGYSKIGYPGIIICEGPKEEVDFYINSLNKLRWKHFDCRGMDDIILKEYEDLDDARVLPKTMYELDPKGMSTLSNICTECGLRDLFLTSMKIYHS	not soluble
MAHHHHHHMLKCARYLFGPPNTKRKCAPLFSARNFSILERYIRAKPLSHELKIEEAKNEGIKGEGDRNGEERKASEKSASTYYPPNITRGVIPKSAYMNTWKIPEQPANPKFLKVALIGAPNAGKSSLLNSILNKTISAVSPKINTTRQDIKGIYTKDNVQLIFIDSPGIVPSHKKKKFCKELVSYAWKGYEEADLVLFIADTVKRPTHDVLNIIRMLAPKKVEAYSSGSEDEGETQHYMFNHPSEDHDQEEHFEWNGKPQSDLNSSSTNEELYEKSQKNVQKFVEYFSTAMEKEAKYSDKSVKENLLKNRKKIIESYSNDVDGKDSPNGEGEQQKLVPPVILVLNKVDLCTHNKWANARAKEFMSNGNFDNIFFISAKYNKGVEELLDYIAKFKAKNQFWVYPKDSNTTLTKVQVVEQLINTYLYCWFNKDVPYRVKHHMLSWCVNLNNSLIIEYQIVVKSPKVAKMICGVHNKLIINMRRNVSYKLTQLWGQNVYVHIHVKSVSA	not soluble
MAHHHHHHMLKHPQAALLFVHNSSDLFQNDTLGVLRNKTKIQNKKKISRFKIQSSEERHTDGGLHYDLTPENVEKVLNLIRPKLQIDNGDVELVDIKNNDLYIKLLGNCVTCSSNSVTVSQVIKKTLKMYIRNEKNEEPNVIITNFDEINEENIHSCLSDLKPYFDFLSKWHTGGGTPLGVMLGGRGSYSKEKRPFKGGDPSHSISSTPPPLKRAKRSTV	not soluble
MAHHHHHHMLKSSIVLLRRGKPRPRAGMFPEKYRRVPTLLKPQQGGQQYFNEFLIRSANDALEAQQQGYGSAFRVGGSGAARILADGNATAADGIHDGEISSVHPRLPQADIDGVLQRSRAETIQAELKQLVAQDGFISQRGFNERLWYEQEHHRLRTHGDGVEASPSEVAATAAASSSTAEAVSATGEGRAVPERILGDDYFQSKFGYSLLKGRSPDASAVADNVKAYAQLDLWGEMPMYSRDFVFLYLVSRRRNTYAVAYDYDGKRLLPTYTAGNRGLKGGDRGFRGDGSTDNGHQVTSMYLNDLLPKIREARAASGRPLGRGEKIDLVVRVMGFYNGRQGAVRAVQDRSADFRVRYLEDVTPFPLNGPKMPRGVFR	not soluble
MAHHHHHHMLLLLEREHPAVHAAVERILRGDSKIPVSVVRDFDGCEYHIRVEWDKEEKEMSQTSGVDSKDTGSGEVGTVNVGGTASVTVSLRSFTPFAELNTHGNFYEVLTTLFPSELQKFVVCDTHKGDGEDFTVAVHIPSNVPAKMLKEAMHSTAQLRAWSFVPAFARQFELFLTNPEVVQPLQLHYHDGEEMVVYNNRGSFIVAIALRVPSKDDAVLTRHFLQAMVEVRKHERSFCGSSAFIFEQGGPPDSVVAVTGPRGRVRDPNTFWCSFQLYKQQMEPPPRLVETVMHLVNFRTTLAYHIRAGRTYMHGIMRKRVESSLQWLNKAKARVAEETKITIT	not soluble
MAHHHHHHMLLSDAEAKITAVLKSLLDTPRTTYEVENLYQLNCERIAAVRAALADMSGDYVDQLCERCGEAEKQVQAKRAAGVASTAAADNAFSLDFALEEAEGQNEAEIESAISAAAHGSRRPKKSSGKEKSKKKEGEERHKKKEKRTLDDEPLVAPLPAGGGSCENNAADKATSSPSTRWVVLSRDDDLTSSEVLPALSTSDRVKCEAVPNTPLARVFFTEEVTRDGASCQCAVELYRCVVIAMRYGEPQLSWAECEKMMQSQVAAASKAGTIEDEGFDSRSAKRAGARSPKTSSDGDGEGAEDDSTSLVEEMTLSEQLIAQYDQAQQAEEEEEDADTLTLPRDISERFQQRLHGFTDEVWVILLCHGGYFAGGVFARGTCITHKAFQRYVVRKKQGGKQSSNAKDAGSYNSVGSQIRAVQEVKWRVDVRDILLDWMPYIQAASFILYAAPGPQNRAVLTDFSLLPAVASVGGRKGVSPIQLKDPRVSRVPLTTHRPTFEEVRRIYGVCSRCSLLYVRQEEAQERNTN	not soluble
MAHHHHHHMLQLTVEDLTPEAIAALEVQCKAQAEKVNQLEEAMGLLQKELDDARKKYRSTSKAVQWRRLMAEVENDEDIANITVMMQEALADFYKTMQPPDDYDESREGISFCDTDDYADLTSVETKVDEFLLAIRRLVGENCASPEDDGDRRHQRRRALLMLLVLTINAARITDTPTEDAASLMEEQQDNIASLWQTLLHTDSGLVEAEKSEWKDIVSSFLGPPYDTST	soluble
MAHHHHHHMLRCAPSKLFRATPLLRVWAAEEDDASAPRTTFRNVRPGRLLRLWRQMRHRAWMLYAWDEEWVSPMQEGYLHQQRLEQVCFAPLSAYGVVPGSYCDPLLYNTKSTSPFRWHVANVQGDIVGHWYMDADELFRIEDWQPREPDDPLEMFPRPPPMLLRWDESVDEHGNRAFRYRYHYDMMGPTGKWEAYPRCPFSHLYHGGPDQHGRAEGYGFQQGHLLRCDEAEEEVLRRIMEGEDREWEMVKRTEAVQEPWSYPGKIRPRDFEGAVERAKARFRERVRHGKETDPSEDPEYDLVQASEYVEPRDGRRAEWRHLWASGRKPGESLPFHVAFNDGLCFEGNEGGPPAHPAAHYEAAHYEAPYGRYEDADAAAARAAEAAHNAACEQSLSEAMARHRRLFGDTSGAPSGPKAPLPTGCRPMRCAPGPPLPSGRSRSSGARAVGSGPVCGAGARDGESEGEGRGGEAPLGYGARACSWRRREGWV	not soluble
MAHHHHHHMLRCSCARRRGVYHNAPSVYPFVKPFHDTPYDQDRGRHDSVGQRYRKNSWPEWMDNGADGTGYGIGLHRTHPLSRLRGNLKRSPSHVPRVLGMMIQGVWHKSGVKLYFRGGKPPNPSVHPYLTGEPCPLYGWKVTDESVIRQFNMPSIDGTNFRYKPYVALQERKIMGVQVPSDSVSLASGRTTESKPLAKRLFFWR	not soluble
MAHHHHHHMLRRTVARFMASEAIGPAHPDILWGFMDGRYAGPGWVSWIKQLPVETLTMQGGTSMTNMNDRAGVILDPEDPRHSMALIQWGPMNHYDGAFMQLSYGDYGEIKKGSRLMQVLYDHYLEPFSMNRVCAQLYFYQKVPNNYHASVEASAEYIGQTASLVGQVVVGMGSVIMEGVTVKGDTNCVYIAEGVQVMENTCIVSDAPTDLLAYQRHEAINPYQQWDGMDGVCRIMQNTMIEPNCFLDSCSIGPFNRIGHNTKILKGVTTGTMVHILPGSVVTADTRIGDGELWGGAPAVKLGKVSKFEWKRPYYASLLHKECVVESYRNMSRYGDQVVYFQDEMGKLDTLMLQFESDITPSVKAKMKEFVQGREPFHHMLTRITQGWSPANRPDDKNYNLCPPLPAVKLFAEHNNDSSDSSLHGTYMNITNIFNDFRW	not soluble
MAHHHHHHMLSRVAAVKAPRTHNRRRVTGSSGRTREGGESEPRRPNMSRRVFPSAVLLLLVTMMCCDRGAATAQVEKATDASTPSGSALTGAITAEGSASGGVERPQRVDLFVPQTKQVLQKTGTDSGRRDSFVSPSLVSAGGVIAAFAEGHINAKNPIPNQLSRLLMLLRSTSTLRGNGPLLLKRSIKKEWSARTVLGKAEGNESFDVVRHPTTTMKGNKMFLLAGSTALSDLNGSWKEGSLEIKLVVGEVTKPTDSEQSKRIEWGEIKSPLNGSTLAAHKGNLTECLASGGSGVLMEDGTLVFSLMAVNEKNDGVYSMIIYSKDNGSTWALSEDISPAKCLNPRITEWEGSLLMIVDCENDQRV	not soluble
MAHHHHHHMLVRSITKCVVPLIKATSYTSSYIVEHPPTPVRLTSMLPLHNKSMPTPLLDPERLQEISCGTGQPAQRGRRKPLVWKRRKPWFDHQWSLDLQRIKKGPETPHFPDGTPFTQIRSFQSFAGRSWKINAGRRRKIRLSLKRGRRKLL	not soluble
